From patent US20230322924A1 come the findings set out here.

Numbering of substitutions follows the chain as printed. Names and notes keep the numbering of the source.

What is called Kd is the concentration at which binding is half-saturated. As a reminder, the koff is a measure of how fast the partners let go of each other. What is called kon is the second-order rate constant of association. The IC50 is the midpoint of a concentration-inhibition curve. Read a low IC50 as greater potency.

B1: CD3B312 (antibody, V domains shown)
VH: QVQLQQSGPRLVRPSQTLSLTCAISGDSVFNNNAAWSWIRQSPSRGLEWLGRTYYRSKWLYDYAVSVKSRITVNPDTSRNQFTLQLNSVTPEDTALYYCARGYSSSFDYWGQGTLVTVSS
VL: QSALTQPASVSGSPGQSITISCTGTSSNIGTYKFVSWYQQHPDKAPKVLLYEVSKRPSGVSSRFSGSKSGNTASLTISGLQAEDQADYHCCSYAGSGTLLFGGGTKLTVL
B2: BLW-2E6 variant CD3H219/CD3L137 (antibody, V domains shown)
VH: B1 VH
VL: B1 VL with D43G, L49M, L50I, S62N, Q85E, H89Y
B3: CD3B376 (antibody, human IgG4 S228P, lambda, F234A L235A, V domains shown)
VH: B1 VH
VL: QSALTQPASVSGSPGQSITISCTGTSSNIGTYKFVSWYQQHPDKAPKVLLYEVSKRPSGVSSRFSGSKSGNTASLTISGLQAEDQADYHCVSYAGSGTLLFGGGTKLTVLG
B4: BLW-2E6 variant CD3H219/CD3L160 (LC C91L) (antibody, V domains shown)
VH: B1 VH
VL: B1 VL with C91L
B5: monovalent CD3B376 construct (bispecific antibody, part only; not given: unnamed target arm, not shown: another chain or arm of the molecule; small tags and cut ends)
heavy: QVQLQQSGPRLVRPSQTLSLTCAISGDSVFNNNAAWSWIRQSPSRGLEWLGRTYYRSKWLYDYAVSVKSRITVNPDTSRNQFTLQLNSVTPEDTALYYCARGYSSSFDYWGQGTLVTVSSASTKGPSVFPLAPCSRSTSESTAALGCLVKDYFPEPVTVSWNSGALTSGVHTFPAVLQSSGLYSLSSVVTVPSSSLGTKTYTCNVDHKPSNTKVDKRVESKYGPPCPPCPAPEAAGGPSVFLFPPKPKDTLMISRTPEVTCVVVDVSQEDPEVQFNWYVDGVEVHNAKTKPREEQFNSTYRVVSVLTVLHQDWLNGKEYKCKVSNKGLPSSIEKTISKAKGQPREPQVYTLPPSQEEMTKNQVSLTCLVKGFYPSDIAVEWESNGQPENNYKTTPPVLDSDGSFLLYSKLTVDKSRWQEGNVFSCSVMHEALHNHYTQKSLSLSLGK
light: QSALTQPASVSGSPGQSITISCTGTSSNIGTYKFVSWYQQHPDKAPKVLLYEVSKRPSGVSSRFSGSKSGNTASLTISGLQAEDQADYHCVSYAGSGTLLFGGGTKLTVLGQPKAAPSVTLFPPSSEELQANKATLVCLISDFYPGAVTVAWKADSSPVKAGVETTTPSKQSNNKYAASSYLSLTPEQWKSHRSYSCQVTHEGSTVEKTVAPTECS
B6: monovalent CD3B450 construct (bispecific antibody, part only; not given: unnamed target arm, not shown: another chain or arm of the molecule; small tags and cut ends)
heavy: B5 heavy with R10G, R13K, V73I, R79K, T83S, L96V
light: B5 light with D43G, L49M, L50I, S62N, Q85E, H89Y

recombinant human CD3ε (1-27) peptide with a C-terminal Tencon25 fusion (human), sequence (P07766 22-48): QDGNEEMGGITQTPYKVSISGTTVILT

The first assay has as its target recombinant human CD3ε (1-27) peptide with a C-terminal Tencon25 fusion (human) (UniProt P07766). Nature of the assay: ProteOn SPR, mAb captured by anti-human Fc, antigen as analyte.
With B1, the Kd turned out to be 20.6 nM, the koff stood at 0.00187 s⁻¹ and the kon was determined as 90800 M⁻¹ s⁻¹.

Turning to B2, the dissociation constant (Kd) was determined as 32.9 nM, the off-rate (koff) came to 0.00202 s⁻¹ and the kon came out at 61300 M⁻¹ s⁻¹.

For the molecule B3, the Kd was 23.3 nM, the off-rate constant (koff) was determined as 0.00237 s⁻¹ and the on-rate constant (kon) was 102000 M⁻¹ s⁻¹.

Regarding B4, the dissociation constant Kd was found to be 41.1 nM, the koff was 0.00405 s⁻¹ and the association rate constant (kon) was found to be 98400 M⁻¹ s⁻¹.

The target of a further assay is human CD3 on human T cells (human) (UniProt P07766). Nature of the assay: Kd = IC50/(1+[T]/KdT) from competition with AF488 SP-34 on human pan T cells.
human CD3 on human T cells (human), sequence (P07766 23-207 limits assumed): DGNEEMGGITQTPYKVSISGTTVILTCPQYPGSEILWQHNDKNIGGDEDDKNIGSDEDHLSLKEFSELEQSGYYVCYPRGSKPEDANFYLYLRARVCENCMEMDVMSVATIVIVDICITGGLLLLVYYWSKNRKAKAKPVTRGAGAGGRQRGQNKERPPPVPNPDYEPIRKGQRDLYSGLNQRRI
Take B5: the Kd was found to be 103 nM.

Consider B6, for which the Kd was 254 nM.

Another assay has the same target. Nature of the assay: competition with AF488 SP-34 tracer on human pan T cells, flow cytometry. For orientation: A flow cytometer gives signals particle by particle.
B5 yielded a 50% inhibitory concentration (IC50) of 409 nM.

B6: the IC50 is 1010 nM. This IC50 is about 2.5-fold higher than that of the molecule before.
